From patent US9340577B2, “HLA binding motifs and peptides and their uses” (priority 1992, dated 2016)
Like-named read-outs stand apart in the source and are kept apart here.

Molecular target: A2.1 HLA molecules (Homo sapiens, UniProt P04439, D140Y/D185E/D98H/E176V/E277Q/G131W/G231S/I119V/I121R/I166T/I218V/L300P/L318F/N151K/N90K/P208A/P217A/Q86G/Q94H/R138H/R169H/T345S)
Format: binding
Parameters: A*0201 / A2.1 Binding / A2 Bind. / A2 / A2.1 (binding capacity): scale not given here

| Substance | A2 Bind. | other results |
| --- | --- | --- |
| 1.0092 (TLTCGFACL) [Peptide 1.0092] | – | A2.1 Binding: 0.0004 |
| 1.0187 (HLLVGSSBL) [Peptide 1.0187] | – | A2.1 Binding: 0.0018 |
| 1.0500 (IMAKNBVFCV) [Peptide 1.0500] | – | A2.1 (binding capacity): 0.0088 |
| 1.0689 (VLKDAIKDLV) [Peptide 1.0689] | – | A2.1 (binding capacity): 0.0002 |
| 1.0876 (FLCILLLCL) [Peptide 1.0876] | – | A2.1 Binding: 0.0007 |
| ALASCMGLI | 0.0110 | – |
| ALBRWGLLV [Peptide 34.0132] | – | A*0201: 0.0960 |
| ALGRNSFEV | 0.0570 | – |
| ALHLFKTTV | 0.0170 | – |
| ALISFLLLA | 0.2200 | – |
| ALLDGGNML | 0.0320 | – |
| ALLLVLALL | – | A2.1 Binding: 0.0014 |
| ALMDLLMFS | 0.4300 | – |
| ALMPLYASI | 0.0760 | – |
| ALPPASPSA | 0.0710 | – |
| ALSLIVNLL | 0.0470 | – |
| AMGLVCVQV | – | A2.1 relative binding (ratio of binding of test peptide relative to standard peptide): 0.012 |
| AMLTACVEV | 0.1000 | A2.1 Binding: 0.089 |
| AMPRRVLHA | – | A2.1 Binding: 0.0014 |
| AMSFTFTTL | – | A2.1 Binding: 0.0005 |
| AMSRNLFRV | 0.1500 | A2.1 Binding: 0.15 |
| CLFHIVNLI | 0.2100 | – |

| Substance | A2 Bind. | other results |
| --- | --- | --- |
| CLGWLTGMDI | 0.0190 | – |
| DLKQMERVV | – | A2.1 Binding: 0 |
| DMLGRVFFV | 0.0110 | A2.1 Binding: 0.011 |
| ELKKVSVL | – | A2.1 Binding: 0 |
| ELKQTRVNL | – | A2.1 Binding: 0 |
| ELQMMQDWV | – | A2.1 Binding: 0.0001 |
| ELSIFRERL | – | A2.1 Binding: 0.0002 |
| FLGLSPTVWV [listing 1 of 2 here] | 0.0300 | – |
| FLGLSPTVWV [listing 2 of 2 here] | – | A2.1 relative binding (ratio of binding of test peptide relative to standard peptide): 0.030 |
| FLLAQFTSA | 0.6600 | A2: 0.6600 |
| FLPSDFFPSI | 0.2100 | – |
| FLRVQQKAL | – | A2.1 Binding: 0.0002 |
| FMLLLCLIFL [listing 1 of 2 here] | 0.0450 | – |
| FMLLLCLIFL [listing 2 of 2 here] | – | A2.1 relative binding (ratio of binding of test peptide relative to standard peptide) (standard […], IC50 5.0, IC50 = 5.0 divided by ratio): 0.045 |
| FMQTYLVTL | – | A2.1 Binding: 0.68 |
| FMWTYLVTL | 0.6800 | – |
| GLCAVFADV | – | A2.1 relative binding (ratio of binding of test peptide relative to standard peptide): 0.030 |
| GLCQVFADV | 0.0300 | – |
| GLLGCIITSL | – | A2: 0.0610 |
| GLRDCTMLV [Peptide F124.11] | – | A*0201: 0.0120 |
| GLRQLKGAL | – | A2.1 Binding: 0.0001 |
| GLSYDGLLV | – | A2.1 relative binding (ratio of binding of test peptide relative to standard peptide): 0.0047 |

| Substance | A2 Bind. | other results |
| --- | --- | --- |
| GLWCVLFFV | 0.4700 | A2.1 Binding: 0.47 |
| GLWIRTPPV [listing 1 of 2 here] | 0.3600 | – |
| GLWIRTPPV [listing 2 of 2 here] | – | A2.1 relative binding (ratio of binding of test peptide relative to standard peptide): 0.36 |
| GMLPVCPLI | 0.0520 | – |
| HLPDLVHFA | 0.1100 | – |
| HLPDRVHFA | 0.0160 | – |
| IIGAETFYV | 0.0260 | A2: 0.0260 |
| IISAVVGILL | 0.0120 | – |
| IISCTCPTV | 0.0190 | – |
| ILCWGELMTL | 0.1900 | – |
| ILGFVFTLT | 0.2600 | – |
| ILGFVFTLTV | 0.0550 | – |
| ILGLLGFAV [listing 1 of 2 here] | 0.0600 | – |
| ILGLLGFAV [listing 2 of 2 here] | – | A2.1 relative binding (ratio of binding of test peptide relative to standard peptide): 0.060 |
| KA SEYLQLV | 0.0110 | – |
| KLVALGINAV [Peptide F127.07] | – | A*0201 (Table 152, binding value, unit not given): 0.0700 |
| KLVALGVNAV [Peptide F124.12] | – | A*0201: 0.0200 |
| KLVSLGVNAV [Peptide F124.23] | – | A*0201: 0.0150 |
| KLWVTVYYGV | 0.0150 | – |
| KMFBQLAKV [Peptide 34.014] | – | A*0201: 0.0980 |
| LIISCSCPTV | 0.0290 | – |
| LLALLSCLTI | – | A2: 0.0340 |

| Substance | A2 Bind. | other results |
| --- | --- | --- |
| LLALLSCLTV [Peptide F127.03] | – | A*0201: 0.0240 |
| LLCLGWLWGM | 0.0220 | – |
| LLCPAGHAV [Peptide F127.06] | – | A*0201: 0.0140 |
| LLEDWGPCA | 0.0180 | – |
| LLFFWLDRSV | 0.6000 | – |
| LLFNILGWV [Peptide F127.09] | – | A*0201: 1.7000 |
| LLGANSFEV | 0.1100 | – |
| LLGDNQIMV | – | A2.1 relative binding (ratio of binding of test peptide relative to standard peptide): 0.043 |
| LLGRASFEV | 0.2200 | – |
| LLGRNAFEV | 0.0390 | – |
| LLGRNSFAV | 0.0420 | – |
| LLGRNSFRV | 0.0250 | – |
| LLGRRSFEV | 0.0540 | – |
| LLLCRLPFL | 0.4200 | A2.1 Binding: 0.42 |
| LLLYYDYSL | 0.2800 | A2.1 Binding: 0.28 |
| LLPFVQWFV [listing 1 of 2 here] | 0.6500 | – |
| LLPFVQWFV [listing 2 of 2 here] | – | A2.1 relative binding (ratio of binding of test peptide relative to standard peptide): 0.63 |
| LLSTTEWQV | 0.0480 | – |
| LLTEVETYV | 0.2000 | – |
| LLTEVETYVL | 0.0130 | – |
